Measurements reported in patent US20040071656A1, “Modulation of heat-shock-protein-based immunotherapies” (priority 2001, published 2004).

Molecular target: T1, exoplasmic domain of human CD40 (GST-CD40) (Homo sapiens, UniProt P25942)
T1 construct: The cDNA for the exoplasmic domain of CD40 (amino acids 20-212); made in house; host or cells: E. coli, pGEX-2T
Test: GST-CD40 binding and competition assay with recombinant Hsp70 and its domains
Conditions: ADP, 5-fold molar excess of competitor
Method: For binding assays with recombinant Hsp70 and its domains, 3 μM His6-Hsp70 or its His6-tagged domains were incubated with 2 mM ATP, 2 mM ADP or 2 mM ADP and 28 μM peptide C in 50 μl binding buffer (10 mM MOPS/KOH, pH 7.2, 150 mM KCl and 3 mM MgCl2) for 30 min at 37° C. In competition experiments binding was probed with either a 10-fold excess of Hsp70, the two domains, or DnaK, or with a 5-fold excess of Hip or Bag 1 for 10 min at 0° C. To this end, Hsp70, N70, C70 and DnaK were preincubated with ADP, ATP and peptide C as described above. […] 10 μl of the eluates were subjected to SDS-PAGE and analyzed by immunoblotting using a Penta-His-antibody (Quiagen). Blot signals were quantified by Quantity One (Biorad).
Details for FIG. 3. […] Thereafter samples were affinity purified on glutathione-Sepharose as outlined in Experimental Procedures, subjected to SDS-PAGE and analyzed by immunoblotting with antibodies directed against Hsc70 and Hsp70 (upper lanes), and against Hsp90 (lower lanes). […] After affinity purification samples were analyzed by immunoblotting as described in A, using antibodies directed against the His6-tag. […] Protein bound to Hsp70 was analyzed by affinity purification on Ni-NTA-agarose and immunoblotting with antibodies directed against CD40. […]
Details for FIG. 5. […] The lower panel is a quantitation of the data. […]

T1 sequence (P25942 20-212): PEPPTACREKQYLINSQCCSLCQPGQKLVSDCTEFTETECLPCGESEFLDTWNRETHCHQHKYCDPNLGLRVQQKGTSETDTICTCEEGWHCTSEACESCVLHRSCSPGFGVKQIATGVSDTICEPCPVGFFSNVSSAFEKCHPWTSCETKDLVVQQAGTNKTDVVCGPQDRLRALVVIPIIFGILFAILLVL

B1: Hip: Hsp70 cochaperone that stabilizes the ADP-state of Hsp70, recombinant His-tagged (protein, UniProt P50502 1-369, looked up)
Hsc70-interacting protein: MDPRKVNELRAFVKMCKQDPSVLHTEEMRFLREWVESMGGKVPPATQKAKSEENTKEEKPDSKKVEEDLKADEPSSEESDLEIDKEGVIEPDTDAPQEMGDENAEITEEMMDQANDKKVAAIEALNDGELQKAIDLFTDAIKLNPRLAILYAKRASVFVKLQKPNAAIRDCDRAIEINPDSAQPYKWRGKAHRLLGHWEEAAHDLALACKLDYDEDASAMLKEVQPRAQKIAEHRRKYERKREEREIKERIERVKKAREEHERAQREEEARRQSGAQYGSFPGGFPGGMPGNFPGGMPGMGGGMPGMAGMPGLNEILSDPEVLAAMQDPEVMVAFQDVAQNPANMSKYQSNPKVMNLISKLSAKFGGQA
modifications: His tag
notes: Hsp70 cochaperone that stabilizes the ADP-state of Hsp70, recombinant His-tagged
competition for the binding of full-length Hsp70 to CD40: acted as an effective competitor of the interaction
